Assay results: paper PMC8509813, “Effect of Structural Changes Induced by Deletion of ^54[sequence]^61 Sequence in αB-crystallin on Chaperone Function and Anti-Apoptotic Activity” (International Journal of Molecular Sciences, 2021)

How the values were obtained:
luciferase = luciferase (UniProt P08659 1-550 = luciferase); test: cell-based or functional assay
lysozyme = lysozyme (UniProt P00698 19-147); test: cell-based or functional assay
[1] = target: the molecule itself; test: SEC-MALS; peak 2 (crystallin) of the mixtures with citrate synthase at 0 min, before incubation; TSK G5000PWXL column, MALS and quasi-elastic light scattering; homo-oligomer of ~20 kDa subunits

Sequence of luciferase (P08659 whole entry): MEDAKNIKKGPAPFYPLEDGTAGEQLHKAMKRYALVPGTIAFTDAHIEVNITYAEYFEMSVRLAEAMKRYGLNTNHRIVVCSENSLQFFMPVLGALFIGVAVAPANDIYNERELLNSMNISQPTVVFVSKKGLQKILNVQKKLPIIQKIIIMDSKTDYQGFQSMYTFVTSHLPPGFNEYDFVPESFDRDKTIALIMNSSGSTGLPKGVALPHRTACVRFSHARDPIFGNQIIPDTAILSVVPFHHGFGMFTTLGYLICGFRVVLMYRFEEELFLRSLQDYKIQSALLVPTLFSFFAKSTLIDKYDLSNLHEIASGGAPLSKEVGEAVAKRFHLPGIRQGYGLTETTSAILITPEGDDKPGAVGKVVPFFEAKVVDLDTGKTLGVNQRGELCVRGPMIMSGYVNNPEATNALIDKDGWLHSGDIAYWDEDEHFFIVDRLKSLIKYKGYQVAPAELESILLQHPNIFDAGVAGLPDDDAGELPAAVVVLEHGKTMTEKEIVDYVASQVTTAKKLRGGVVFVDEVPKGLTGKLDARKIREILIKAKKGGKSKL
Sequence of lysozyme (P00698 19-147): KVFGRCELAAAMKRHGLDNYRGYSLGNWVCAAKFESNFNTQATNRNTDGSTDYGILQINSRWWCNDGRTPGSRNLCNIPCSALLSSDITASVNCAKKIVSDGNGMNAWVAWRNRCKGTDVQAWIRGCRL

Row | Binder | EC50: chaperone concentration that suppresses the aggregation of 1 µM luciferase (PBS, 37 °C, light scattering at 360 nm) by 50% (luciferase) | EC50: chaperone concentration that suppresses the aggregation of 10 µM lysozyme (2 mM DTT, PBS, 37 °C, light scattering at 360 nm) by 50% (lysozyme) | binding result [1]
1 | αB-crystallin with residues 54–61 deleted (natural protein, human, UniProt P02511 1-175, looked up, No tag is mentioned; 306 kDa by MALS; also called αBΔ54–61; deletion mutant; source: E. coli BL21(DE3)pLysS, purified (ammonium sulfate precipitation, gel filtration twice)) MDIAIHHPWIRRPFFPFHSPSRLFDQFFGEHLLESDLFPTSTSLSPFYLRPPSDTGLSEMRLEKDRFSVNLDVKHFSPEELKVKVLGDVIEVHGKHEERQDEHGFISREFHRKYRIPADVDPLTITSSLSSDGVLTVNGPRKQVSGPERTIPITREEKPAVTAAPKK | 9 µM | 1.8 µM | binds
2 | wild-type αB-crystallin (natural protein, human, UniProt P02511 1-175, looked up, αB-crystallin, human, wild type; subunit of ~20 kDa that forms a homo-oligomer; also called αB-wt; WT protein; source: E. coli BL21(DE3)pLysS, purified (ammonium sulfate precipitation, gel filtration twice)) MDIAIHHPWIRRPFFPFHSPSRLFDQFFGEHLLESDLFPTSTSLSPFYLRPPSFLRAPSWFDTGLSEMRLEKDRFSVNLDVKHFSPEELKVKVLGDVIEVHGKHEERQDEHGFISREFHRKYRIPADVDPLTITSSLSSDGVLTVNGPRKQVSGPERTIPITREEKPAVTAAPKK | 48 µM | 2.8 µM | binds
